Measurements from patent US20240101645A1 (HENRY M JACKSON FOUNDATION FOR THE ADVANCEMENT OF MILITARY …, published 2024).

Experiments:
[1] = biological target: SARS-CoV-1 spike antigens (bead panel) (SARS-CoV-1, UniProt P59594 14-1195); assay: multiplex bead assay
[2] = biological target: T1, HCoV-229E spike antigens (bead panel) (HCoV-229E, UniProt P15423 16-1115); assay: multiplex bead assay
T1 sequence: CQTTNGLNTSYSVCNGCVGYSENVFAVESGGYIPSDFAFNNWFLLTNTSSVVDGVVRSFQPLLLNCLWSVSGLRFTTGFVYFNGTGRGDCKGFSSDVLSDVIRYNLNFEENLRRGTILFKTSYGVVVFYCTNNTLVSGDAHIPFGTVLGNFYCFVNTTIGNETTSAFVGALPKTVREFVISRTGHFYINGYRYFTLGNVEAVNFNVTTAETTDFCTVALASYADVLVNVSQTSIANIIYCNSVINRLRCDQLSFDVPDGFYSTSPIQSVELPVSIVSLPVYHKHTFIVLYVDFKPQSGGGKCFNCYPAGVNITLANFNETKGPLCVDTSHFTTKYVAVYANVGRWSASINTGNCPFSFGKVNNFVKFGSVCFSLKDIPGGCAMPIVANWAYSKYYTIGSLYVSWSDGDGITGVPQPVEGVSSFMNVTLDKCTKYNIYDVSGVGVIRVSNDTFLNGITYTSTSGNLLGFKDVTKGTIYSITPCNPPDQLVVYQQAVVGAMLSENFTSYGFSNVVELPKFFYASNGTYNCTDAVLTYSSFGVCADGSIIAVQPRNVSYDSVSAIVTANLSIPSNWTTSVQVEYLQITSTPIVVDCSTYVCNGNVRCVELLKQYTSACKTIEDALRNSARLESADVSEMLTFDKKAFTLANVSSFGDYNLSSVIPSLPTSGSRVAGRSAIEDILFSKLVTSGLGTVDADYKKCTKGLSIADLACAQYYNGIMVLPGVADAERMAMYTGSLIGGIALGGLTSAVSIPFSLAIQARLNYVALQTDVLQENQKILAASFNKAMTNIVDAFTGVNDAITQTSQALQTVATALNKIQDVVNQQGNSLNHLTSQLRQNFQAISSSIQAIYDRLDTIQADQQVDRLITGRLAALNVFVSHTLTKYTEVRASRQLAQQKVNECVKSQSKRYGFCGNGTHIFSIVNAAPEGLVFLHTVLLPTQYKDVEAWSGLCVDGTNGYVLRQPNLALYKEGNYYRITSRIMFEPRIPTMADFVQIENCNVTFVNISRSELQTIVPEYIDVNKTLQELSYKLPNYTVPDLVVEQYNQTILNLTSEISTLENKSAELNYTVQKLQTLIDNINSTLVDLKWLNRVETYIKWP

[3] = biological target: T2, HCoV-NL63 spike antigens (bead panel) (HCoV-NL63, UniProt Q6Q1S2 19-1296); assay: multiplex bead assay
T2 sequence: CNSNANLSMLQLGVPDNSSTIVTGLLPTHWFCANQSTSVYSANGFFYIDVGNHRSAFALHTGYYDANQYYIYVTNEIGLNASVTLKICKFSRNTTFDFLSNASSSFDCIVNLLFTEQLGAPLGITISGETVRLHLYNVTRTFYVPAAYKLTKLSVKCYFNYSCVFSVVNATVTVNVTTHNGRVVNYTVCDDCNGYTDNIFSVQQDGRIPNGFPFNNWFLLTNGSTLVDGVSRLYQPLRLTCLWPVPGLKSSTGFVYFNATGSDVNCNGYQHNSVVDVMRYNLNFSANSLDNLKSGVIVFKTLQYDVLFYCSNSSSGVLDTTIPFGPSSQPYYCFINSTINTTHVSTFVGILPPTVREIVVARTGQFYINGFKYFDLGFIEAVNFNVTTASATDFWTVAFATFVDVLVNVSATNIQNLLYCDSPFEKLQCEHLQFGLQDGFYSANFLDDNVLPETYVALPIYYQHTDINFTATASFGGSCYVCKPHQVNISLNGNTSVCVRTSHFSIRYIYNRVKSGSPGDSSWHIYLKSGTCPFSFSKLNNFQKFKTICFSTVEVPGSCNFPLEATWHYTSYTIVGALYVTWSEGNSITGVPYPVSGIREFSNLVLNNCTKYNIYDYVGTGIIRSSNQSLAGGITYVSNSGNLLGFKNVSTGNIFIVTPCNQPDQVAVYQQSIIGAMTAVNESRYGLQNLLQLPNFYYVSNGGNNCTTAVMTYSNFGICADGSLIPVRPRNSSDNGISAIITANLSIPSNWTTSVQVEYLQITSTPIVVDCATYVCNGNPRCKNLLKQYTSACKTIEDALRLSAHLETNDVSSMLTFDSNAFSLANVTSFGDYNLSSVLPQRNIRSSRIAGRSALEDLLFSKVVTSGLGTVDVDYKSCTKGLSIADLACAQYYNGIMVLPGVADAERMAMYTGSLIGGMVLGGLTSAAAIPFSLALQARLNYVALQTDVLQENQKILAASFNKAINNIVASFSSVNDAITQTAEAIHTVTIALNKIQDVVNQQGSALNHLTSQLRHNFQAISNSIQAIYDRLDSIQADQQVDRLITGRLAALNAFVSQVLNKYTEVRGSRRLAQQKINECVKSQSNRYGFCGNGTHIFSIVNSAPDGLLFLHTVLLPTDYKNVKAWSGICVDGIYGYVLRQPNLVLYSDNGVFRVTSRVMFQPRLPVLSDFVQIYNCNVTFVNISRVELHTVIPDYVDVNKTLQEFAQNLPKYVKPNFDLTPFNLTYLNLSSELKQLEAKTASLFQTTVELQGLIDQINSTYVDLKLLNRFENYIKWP

[4] = biological target: T3, HCoV-OC43 spike antigens (bead panel) (HCoV-OC43, UniProt P36334 14-1297); assay: multiplex bead assay
T3 sequence: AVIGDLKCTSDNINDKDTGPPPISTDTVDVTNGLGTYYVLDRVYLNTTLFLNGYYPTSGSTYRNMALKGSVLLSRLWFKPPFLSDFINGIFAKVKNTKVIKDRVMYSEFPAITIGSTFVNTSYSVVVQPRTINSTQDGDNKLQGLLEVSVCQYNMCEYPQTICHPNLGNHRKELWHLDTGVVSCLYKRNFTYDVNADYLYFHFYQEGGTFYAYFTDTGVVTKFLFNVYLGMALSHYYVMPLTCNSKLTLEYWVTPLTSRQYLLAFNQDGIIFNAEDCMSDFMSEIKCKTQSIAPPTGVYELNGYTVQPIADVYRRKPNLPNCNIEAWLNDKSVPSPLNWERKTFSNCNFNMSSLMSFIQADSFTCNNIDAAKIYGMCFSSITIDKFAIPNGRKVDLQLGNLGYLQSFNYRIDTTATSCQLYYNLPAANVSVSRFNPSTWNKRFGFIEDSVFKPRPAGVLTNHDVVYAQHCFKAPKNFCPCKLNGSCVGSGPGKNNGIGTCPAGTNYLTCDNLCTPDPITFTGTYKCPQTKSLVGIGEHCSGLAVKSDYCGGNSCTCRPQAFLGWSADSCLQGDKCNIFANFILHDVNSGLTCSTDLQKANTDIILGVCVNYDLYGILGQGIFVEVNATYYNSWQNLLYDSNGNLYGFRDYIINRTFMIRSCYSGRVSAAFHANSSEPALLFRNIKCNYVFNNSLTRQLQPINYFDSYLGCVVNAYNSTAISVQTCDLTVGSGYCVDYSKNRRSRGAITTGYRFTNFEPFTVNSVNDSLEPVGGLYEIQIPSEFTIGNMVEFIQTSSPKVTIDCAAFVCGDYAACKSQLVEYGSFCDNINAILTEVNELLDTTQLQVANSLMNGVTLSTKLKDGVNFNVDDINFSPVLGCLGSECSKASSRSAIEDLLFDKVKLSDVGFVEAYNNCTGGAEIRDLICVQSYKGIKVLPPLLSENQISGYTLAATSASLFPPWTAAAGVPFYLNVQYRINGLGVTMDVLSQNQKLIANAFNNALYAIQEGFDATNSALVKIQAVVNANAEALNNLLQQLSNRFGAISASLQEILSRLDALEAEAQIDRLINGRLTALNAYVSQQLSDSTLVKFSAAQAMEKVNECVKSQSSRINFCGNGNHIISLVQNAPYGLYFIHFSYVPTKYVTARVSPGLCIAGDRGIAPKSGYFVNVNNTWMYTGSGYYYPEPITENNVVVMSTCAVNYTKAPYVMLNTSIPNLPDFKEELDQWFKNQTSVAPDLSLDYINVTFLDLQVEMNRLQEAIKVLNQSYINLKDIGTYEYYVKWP

[5] = biological target: SARS-CoV-2 S on pseudovirions (Wuhan Hu-1 / IL1/2020, last 18 amino acids removed) (SARS-CoV-2, UniProt P0DTC2 14-1273); assay: cell-based or functional assay

B1: COV_1007 (antibody, V domains shown)
VH: QVTLKESGPVLVKPTETLTLTCTVSGFSLINARVGVSWIRQPPGKALDWLAHIFSSDEKSYSTSLKSRLTISKDTSKSQVVLTMTNMDPVDTATYYCARIRWLSSYYFDYWGQGTLVTVSS
VL: DIRMTQSPSSVSASVGDRVTITCRASQGISNWLAWYQQKPGKAPKLLIYAASSLQSGVPSRFSGGGSGTDFTLTISSLQPEDFATYYCQQANSFLLTFGGGTKVEIK
notes: human IgG1
[1]
  binding result: no binding
[2]
  binding result: no binding
[3]
  binding result: no binding
[4]
  binding result: no binding
[5]
  Mean IC50, pSV neutralization: 9 µg/ml
  Mean IC80, pSV neutralization: ≥ 25 µg/ml
